Test: soluble on expression in E. coli; label from the status in PepcDB or PDB records

Soluble on expression in E. coli, soluble:
MTKVTEHLEKQLAENRVKQEEARRAREEEKQRSDNAFNNAERAFERKLEEQRKENQENQKELELEMDNSRLKHEMLYREKQKEHEDVMGAMRNASSAERSAAANMHEKELNLLRKTHESEMKNCEVQMEAIRQKGEREVRDVEDQMAKLHLERGAELDKHHKKMLKMVEKSHEDCTREKVKQHALKMLEMKNEGQRKAIEHKIVMEKLEQARGMSQRLAVNEANREVYRLFMAIMEPVNEARSNLGDIKALCDNNGEDYEDSDTACAEYYSSGIGNSRSIFDIRTNAFRDFVLNQPNCDHELVIACQTAINSMKKPMESTTIRSACTTLPRFMGEQRHLRITAILQNIDDLTSTLEAISDDVRLNFVSWKQLEIVEAVVEQKTIEKE
VSDVPRDIEVVAVTPTSALISWDAPAVTIRYIRLTYGETGGNSPVQEITLPGSKSTYTISGLKPGTDYTVTLYSVTGRGDSPASSKPASINFRTEI
MVFKSKKDKFSEMLMNVSENLKEGAQFFVEYKIKNASDLKEFSMRMKEYESKGDSFIHEIIMELNKAFITPIEREDILQLAMSMDDVLDGLDHSAGLFEMYSITEADEYMIKFVEAINQCAIEIANSVELMSNKKLVDIRTNAIKIKDYESQCDDIRRHAIKNLFSREKDPIKIIQFKEIYEELEEVADSCQSVANVLETIIMKNALEHHHHHH
QMSLEGTEKASWLGEQPQFWSKTQVLDWISYQVEKNKYDASAIDFSRCDMDGATLCNCALEELRLVFGPLGDQLHAQLRDLTSSS
MNETSHEASECPAAVITGGARRIGHSIAVRLHQQGFRVVVHYRHSEGAAQRLVAELNAARAGSAVLCKGDLSLSSSLLDCCEDIIDCSFRAFGRCDVLVNNASAYYPTPLLPGDDTNGAADAKPIDAQVAELFGSNAVAPLFLIRAFARRQGEGGAWRSRNLSVVNLCDAMTDLPLPGFCVYTMAKHALGGLTRAAALELAPRHIRVNAVAPGLSLLPPAMPQETQEEYRRKVPLGQSEASAAQIADAIAFLVSKDAGYITGTTLKVDGGLILARA

Soluble on expression in E. coli, not soluble:
MGSDKIHHHHHHATCCAANGEGNCPEGTCRKECTNACNTNNQKNKTMAYSKKYTNADFYKDGKFQQDVAMEAMKDMFAFYDVPFTELMAKDMWVTDFGLGDFENVGMGGIFWINDPEYKYFAHAIYLLPGQMIPEHAHVKTDFPAKHESWMVEKGWVYNFSEVGDETPNAPAIPAGHGPIKSKNFVVQKVGDVLRLKKLETFHFMMAGPEGAIVDEWACYHDNAGLRFTNQKAAL
MGSDKIHHHHHHMSGTLITSDVDVDAHGKQQAYLRVPHSVHRSAYGWIPVPIAVIRNGDGPTLVISAGVHGDEYEGQIAVATLIRTLDATDIRGRLILLPMVNVPAAEAGCRTSPIDAGNLNRLYPGDPKGMPSQMIAHFHEEVILPLADYAVDLHSGGSSLIYPATVMRGPSHSPQEEDGLATLVDAFDLPYTWVFQGGGGRDSTARTAMGAANRKGVINVMAELGGAGCVTPDVLHRTERGLRRILHAVGMLPGYVPDGAQGTRAVSVQGSVYAFETGVFEPLKSIGGDVVKGEAVAHIHHPETPGKAPDVVLSPHAGMVLAMRAMAQVRRGDALYQIAADAG
MVDGEGITPKTCSEDIIKDLLNDVKSSEKPFSVDKLAGCDQTDFVGKRPKKHHRHKSKKSKKVRRRSKTWSSSRSRSRSRSRSRGRSQERRRSRKSRKSRSRSRLKHREEKIEKKNLEKAPKNELIPQAPSTENGKPKEFKEPPRKDEADDLPLGADFSTPLVKKETKLAISITTVLPKAENKKEVEDGEIEEIAYGDGDFKEPEGIEKNLENKNICENGNLDNSENEKSKEKDKNRKKEKTERKRKRSHSSSDRRGRRTSKESRRRSRSRDTHRTRRRSPERSRRSTETRNERPERPSRWRSRSRERKEYDSYRRRRSRSREVIDKEKLLAIAKTKRAEMMSNGDRDSASIEDFVTYCKKLQRRQEREKRREAGHDVSDHDSDRETVRYKHPYAMPKEPIRINIVTATSANLAQKAITGPEEPTQLGAAQLRIVFPVSSGAVHKENAEWVPVEKEDVPKSCSVEQKKHVALTSLEIDRCRAQGIPVAPAPVPKFLNSILPPPPAPPQFLPNPTDSFRPPTPPPLPSVLYVPNKDQMILKEPKDIPIPAPSDIGKVLKQRTEAQRKVLSTPNDFDAHRALREANEQISLWAALKSLPGEYTGTTGLRLLTADELQPQNPKYHAWVKKDQFRNAAPATGGIGRLMLEKMGWRPGEGLGKDATGNLEPLMLDVKSDRKGLIAEEEMSIKQRNKINAQNNVPVDLSNKNPISLIMELCAKRRWNPPSFSCEESGADHLKMFVWTIVINDVEYRPMCGSKQKKEGKAVAAQVALQSLGVLPMDPNLPVYM

From the DeepSol protein solubility set
